{"source": "patent US20250163404A1", "about": "“PHAGE DISPLAY-BASED CELL-PENETRATING PEPTIDE DISCOVERY PLATFORM AND METHODS OF MAKING AND USING THE SAME” (Eli Lilly and Company, priority 2022, published 2025)", "molecules": {"B1": {"name": "H4: engineered M13 IX104 phage clone with FLVIR cathepsin substrate copies in pIII GS2 linker (nucleic acid)", "DNA": "GCTGAAACTGTTGAAAGTTGTTTAGCAAAATCCCATACAGAAAATTCATTTACTAACGTCTGGAAAGACGACAAAACTTTAGATCGTTACGCTAACTATGAGGGCTGTCTGTGGAATGCTACAGGCGTTGTAGTTTGTACTGGTGACGAAACTCAGTGTTACGGTACATGGGTTCCTATTGGGCTTGCTATCCCTGAAAATGAGGGTGGTGGCTCTGAGGGTGGCGGTTCTGAGGGTGGCGGTTCTGAGGGTGGCGGTACTAAACCTCCTGAGTACGGTGATACACCTATTCCGGGCTATACTTATATCAACCCTCTCGACGGCACTTATCCGCCTGGTACTGAGCAAAACCCCGCTAATCCTAATCCTTCTCTTGAGGAGTCTCAGCCTCTTAATACTTTCATGTTTCAGAATAATAGGTTCCGAAATAGGCAGGGGGCATTAACTGTTTATACGGGCACTGTTACTCAAGGCACTGACCCCGTTAAAACTTATTACCAGTACACTCCTGTATCATCAAAAGCCATGTATGACGCTTACTGGAACGGTAAATTCAGAGACTGCGCTTTCCATTCTGGCTTTAATGAGGATTTATTTGTTTGTGAATATCAAGGCCAATCGTCTGACCTGCCTCAACCTCCTGTCAATGCTGGCGGCGGCTCTTTTTTAGTTATTAGAGGTGGTGGTTCTGGTGGCGGCTCTGAGGGTGGTGGCTCTGAGTTTTTAGTTATTAGAGGTGGCGGTTCTGAGGGTGGCGGCTCTGAGGGAGGCGGTTCCGGTGGTGGCTCTGGTTCCGGTGATTTTGATTATGAAAAGATGGCAAACGCTAATAAGGGGGCTATGACCGAAAATGCCGATGAAAACGCGCTACAGTCTGACGCTAAAGGCAAACTTGATTCTGTCGCTACTGATTACGGTGCTGCTATCGATGGTTTCATTGGTGACGTTTCCGGCCTTGCTAATGGTAATGGTGCTACTGGTGATTTTGCTGGCTCTAATTCCCAAATGGCTCAAGTCGGTGACGGTGATAATTCACCTTTAATGAATAATTTCCGTCAATATTTACCTTCCCTCCCTCAATCGGTTGAATGTCGCCCTTTTGTCTTTAGCGCTGGTAAACCATATGAATTTTCTATTGATTGTGACAAAATAAACTTATTCCGTGGTGTCTTTGCGTTTCTTTTATATGTTGCCACCTTTATGTATGTATTTTCTACGTTTGCTAACATACTGCGTAATAAGGAGTCT"}}, "key": {"[1]": {"test_system": "CaCo2 lysosome (lysosomal cathepsins)", "assay": "Phage infectivity after incubation with CaCo2 lysosomal extract", "assay_type": "biochemical", "details": "30 min. incubation at 37° C., n=3", "description": "(§1) Subcellular fractionation: cytosolic and endosomal extraction are prepared according to manufactures' protocols from ThermoFisher Scientific (Cat. No. 89842) and Invent Biotechnologies (Cat. No. #ED-028), respectively. The starting cell number is 5×10^6 cells for one cytosolic extraction, and 3×10^7 cells for one endosome extraction. Lysosomal isolation from different cell types are optimized based on an Abcam kit (Cat. No. ab234047) for homogenization step and increased isolation scale. The starting cell number for one lysosomal isolation is 2×10^8 cells.\n(§2) Ten rounds of overnight phage culture described above are grown to evaluate substrate sequence retention for each phage clone. Sanger sequencing is performed after each round of phage culture to confirm the substrate insertion. Final phage clones with the substrate insertion are then evaluated for cathepsin accessibility by incubation with lysosomal extract from different mammalian cell lines.\n(§3) The accessibility of clone A1 and H4 to active cathepsins is further assessed in lysosomal extracts from CaCo2 and HEK293 cells in addition to CHO cells. […] (see, FIG. 3). CaCo2 lysosome: clone A1 (mean=79.83%, SEM=9.5%) vs. H4 (mean=34.63%, SEM=13.5%), p=0.22, n=3. HEK293 lysosome: clone A1 (mean=75.1%, SEM=9.7%) vs. H4 (mean=9.5%, SEM=1.6%), p=0.018, n=3. […]"}, "[2]": {"test_system": "HEK293 lysosome (lysosomal cathepsins)", "assay": "Phage infectivity after incubation with HEK293 lysosomal extract", "assay_type": "biochemical", "details": "30 min. incubation at 37° C., n=3", "description": "as §1, §2, §3"}, "[3]": {"test_system": "CHO cell lysosomal extracts (active cathepsins)", "assay": "Phage infectivity after incubation with CHO cell lysosomal extract", "assay_type": "biochemical, Chinese hamster", "description": "as §1, §2\nThe accessibility of the engineered GS2 linker of the 18 phage clones to active cathepsins (confirmed by fluorogenic cleaving assay) is assessed by incubating phage clones with CHO cell lysosomal extracts at 37° C. The assessment is repeated 4 times with independently isolated lysosome under acidic environment (about pH 5). […] (as shown in the representative graph in FIG. 2).\nThe accessibility of clone A1 and H4 to active cathepsins is further assessed in lysosomal extracts from CaCo2 and HEK293 cells in addition to CHO cells. […] (see, FIG. 3). CaCo2 lysosome: clone A1 (mean=79.83%, SEM=9.5%) vs. H4 (mean=34.63%, SEM=13.5%), p=0.22, n=3. HEK293 lysosome: clone A1 (mean=75.1%, SEM=9.7%) vs. H4 (mean=9.5%, SEM=1.6%), p=0.018, n=3. CHO lysosome: clone A1 (mean=95.58%, SEM=13.8%) vs. H4 (mean=2.738%, SEM=0.8%), p<0.0001, n=6."}}, "data": [{"molecule": "B1", "values": [{"measurement": "infectivity (mean)", "setting": "[1]", "result": 34.63, "unit": "%"}, {"measurement": "infectivity (mean)", "setting": "[2]", "result": 9.5, "unit": "%"}, {"measurement": "infectivity reduction", "setting": "[3]; CHO lysosomal extract, 37° C., about pH 5", "result": 9800}, {"measurement": "infectivity (mean)", "setting": "[3]; CHO lysosomal extract, 37° C., about pH 5, n=4", "result": 2, "unit": "%"}, {"measurement": "infectivity (mean)", "setting": "[3]; CHO lysosome, 30 min. incubation at 37° C., n=6", "result": 2.738, "unit": "%"}]}]}
